Measurements: US20230382984A1, “TRABD PROTEIN, AND MONOCLONAL ANTIBODY THEREOF, AND ISOLATION, AMPLIFICATION AND USE THEREOF” (priority 2022, published 2023)

What was measured:
TRABD2A protein [1] = target: T1, TRABD2A protein (Homo sapiens, UniProt Q86V40); conditions: different view; metal ions; cited from earlier work
T1 sequence (Q86V40 22-480): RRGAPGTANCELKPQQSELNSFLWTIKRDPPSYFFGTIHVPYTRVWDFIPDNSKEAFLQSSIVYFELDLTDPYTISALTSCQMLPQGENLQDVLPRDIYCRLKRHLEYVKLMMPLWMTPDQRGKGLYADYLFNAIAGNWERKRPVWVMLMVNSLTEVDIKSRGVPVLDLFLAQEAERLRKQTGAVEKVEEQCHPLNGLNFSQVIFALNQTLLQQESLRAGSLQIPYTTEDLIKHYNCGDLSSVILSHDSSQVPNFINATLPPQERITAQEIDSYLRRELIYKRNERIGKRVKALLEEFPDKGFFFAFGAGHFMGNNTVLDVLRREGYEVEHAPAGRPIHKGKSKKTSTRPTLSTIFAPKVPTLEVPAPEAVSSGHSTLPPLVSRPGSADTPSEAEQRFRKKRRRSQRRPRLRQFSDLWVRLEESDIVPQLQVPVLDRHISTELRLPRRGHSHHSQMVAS

[2] = target: T2, TRABD2A metalloprotease on CD8^+ T cells (Homo sapiens, UniProt Q86V40); assay: Killing activity of CD8+ T cells on target cells after metal cofactor intervention of TRABD2A; type: cell-based; conditions: metal cations at different concentrations acting on CD8+ T cells; target cells CEM.T2 and MGC; FIG. 4A
T2 construct: action of metal ions Mn^2+, Co^2+ and Ni^2+ on TRABD2A metalloprotease on CD8^+ T cells; endogenous in cells
T2 sequence (Q86V40 22-480): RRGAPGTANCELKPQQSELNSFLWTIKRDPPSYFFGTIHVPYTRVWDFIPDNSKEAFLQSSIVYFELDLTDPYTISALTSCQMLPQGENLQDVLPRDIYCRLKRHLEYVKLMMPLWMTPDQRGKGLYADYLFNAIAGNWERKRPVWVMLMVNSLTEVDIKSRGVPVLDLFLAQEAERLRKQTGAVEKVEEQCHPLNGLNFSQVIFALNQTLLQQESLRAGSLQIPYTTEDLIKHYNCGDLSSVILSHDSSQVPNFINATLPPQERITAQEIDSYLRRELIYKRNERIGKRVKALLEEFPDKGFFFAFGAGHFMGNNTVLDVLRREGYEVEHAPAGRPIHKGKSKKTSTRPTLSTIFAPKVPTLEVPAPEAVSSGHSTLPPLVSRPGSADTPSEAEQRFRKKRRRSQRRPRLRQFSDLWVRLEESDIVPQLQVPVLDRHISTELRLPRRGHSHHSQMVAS
Source text: Since TRABD2A is a metalloprotease and its activity is affected by metal ions, and the metal ion Mn^2+ having an accelerating effect on TRABD2A metalloprotease activity and metal ions Co^2+ and Ni^2+ having an inhibiting effect were examined. The effect of the TRABD2A protein on CD8^+ T cells was observed by the action of metal ions Mn^2+, Co^2+ and Ni^2+ on TRABD2A metalloprotease on CD8^+ T cells.

TRABD protease = conditions: early study; metal ions; cited from earlier work
[3] = target: T3, TRABD2B metalloprotease on CD8^+ T cells (Homo sapiens, UniProt A6NFA1); assay: Killing activity of CD8+ T cells on target cells after metal cofactor intervention with TRABD2B; type: cell-based; conditions: Ni2+ at different concentrations; target cells CEM.T2; FIG. 4B
T3 construct: action of metal ion Ni^2+ upon TRABD2B metalloprotease on CD8^+ T cells; endogenous in cells
T3 sequence (A6NFA1 20-486): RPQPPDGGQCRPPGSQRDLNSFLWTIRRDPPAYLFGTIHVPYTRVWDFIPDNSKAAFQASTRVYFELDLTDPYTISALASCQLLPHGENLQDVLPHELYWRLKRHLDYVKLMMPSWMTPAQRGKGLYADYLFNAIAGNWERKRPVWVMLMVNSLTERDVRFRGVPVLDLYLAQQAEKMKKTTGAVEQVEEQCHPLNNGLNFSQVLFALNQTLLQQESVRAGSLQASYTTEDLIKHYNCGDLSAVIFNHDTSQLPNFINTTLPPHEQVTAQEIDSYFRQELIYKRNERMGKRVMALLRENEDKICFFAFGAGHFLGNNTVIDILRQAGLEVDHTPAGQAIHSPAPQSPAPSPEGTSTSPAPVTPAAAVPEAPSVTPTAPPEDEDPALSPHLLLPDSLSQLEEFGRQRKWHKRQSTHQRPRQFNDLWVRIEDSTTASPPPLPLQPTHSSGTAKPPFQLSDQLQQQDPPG
Source text: Since TRABD2B is a metalloprotease whose activity is affected by metal ions, metal ion Mn^2+ that promotes the TRABD2B metalloprotease activity was examined. The effect of the TRABD2B protein on CD8^+ T cells was observed by the action of metal ion Ni^2+ upon TRABD2B metalloprotease on CD8^+ T cells.

[4] = tested on: CD8^+ T cells and target cells; assay: CCK8 and flow cytometry detection of toxic effect of metal cations; conditions: concentration of 20 μM
Source text: FIG. 4A show the effect on the target cell killing ability of CD8^+ T cells after metal cofactor intervention of TRABD2A; • A: detection of the killing activity of the CD8^+ T cells on target cells CEM.T2 when metal cations Co^2+, Ni^2+ and Mn^2+ at different concentrations act on CD8^+ T cells; • B: detection of the killing activity of the CD8^+ T cells on target cells MGC when metal cations Co^2+, Ni^2+ and Mn^2+ at different concentrations act on CD8^+ T cells; • C: CCK8 and flow cytometry detection of the toxic effect of metal cations Co^2+, Ni^2+ and Mn^2+ at different concentrations on target cells.

target cells = assay: CCK8 and flow cytometry detection of toxic effect of Ni2+ on target cells; type: cell-based; conditions: concentration 20 μM
[5] = target: TRABD2A protein (antigen) (UniProt Q86V40); assay: ELISA; negative control; fit value beyond top concentration
[6] = target: T4, TRABD2A protein on CD8^+ T cells (Homo sapiens, UniProt Q86V40); assay: Killing of target cells by CD8+ T cells after intervention with TRABD2A antibody; type: cell-based; conditions: antibody removed or unremoved after incubation; FIG. 7A
T4 construct: action of metal ions Mn^2+, Co^2+ and Ni^2+ on TRABD2A metalloprotease on CD8^+ T cells; endogenous in cells
T4 sequence (Q86V40 22-480): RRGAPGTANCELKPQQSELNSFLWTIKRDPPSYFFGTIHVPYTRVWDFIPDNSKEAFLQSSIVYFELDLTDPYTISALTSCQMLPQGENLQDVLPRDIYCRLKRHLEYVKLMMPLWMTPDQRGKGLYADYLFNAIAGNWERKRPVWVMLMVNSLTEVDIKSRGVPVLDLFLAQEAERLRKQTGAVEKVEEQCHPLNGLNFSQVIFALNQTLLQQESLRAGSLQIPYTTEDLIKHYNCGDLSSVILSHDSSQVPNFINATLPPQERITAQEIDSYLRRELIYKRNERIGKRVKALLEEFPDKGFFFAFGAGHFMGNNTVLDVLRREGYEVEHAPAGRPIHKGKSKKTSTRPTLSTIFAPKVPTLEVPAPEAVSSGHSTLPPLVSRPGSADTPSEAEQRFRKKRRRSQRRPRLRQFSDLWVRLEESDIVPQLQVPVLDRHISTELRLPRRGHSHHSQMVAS
Procedure: Two modes were adopted for intervening with TRABD2A protein on CD8^+ T cells, and the difference of the two modes was that the CD8^+ T cells, after incubation with the antibody, kill the target cells with residual blocking antibody removed or unremoved.

[7] = target: T5, TRABD2A protein (antigen) (UniProt Q86V40 22-480); assay: ELISA
T5 chain: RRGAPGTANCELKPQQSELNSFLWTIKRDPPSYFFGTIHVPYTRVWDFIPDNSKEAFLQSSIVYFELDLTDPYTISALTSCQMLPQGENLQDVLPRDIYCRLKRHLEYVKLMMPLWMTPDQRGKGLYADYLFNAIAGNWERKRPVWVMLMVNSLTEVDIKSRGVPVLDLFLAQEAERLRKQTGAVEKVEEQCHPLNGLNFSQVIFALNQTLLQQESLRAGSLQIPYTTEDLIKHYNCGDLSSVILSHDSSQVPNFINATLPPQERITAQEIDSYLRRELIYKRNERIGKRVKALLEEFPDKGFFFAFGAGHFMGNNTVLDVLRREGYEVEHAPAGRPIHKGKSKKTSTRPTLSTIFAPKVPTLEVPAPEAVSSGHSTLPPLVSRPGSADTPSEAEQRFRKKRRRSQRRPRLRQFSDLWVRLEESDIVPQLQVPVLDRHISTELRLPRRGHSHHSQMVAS

TRABD2A protein [8] = target: T1, TRABD2A protein; assay: Binding of synthesized TRABD2A antibodies to antigen; conditions: detection with antigen; FIG. 6A
Source text: Three antibodies anti-TRABD2A-1 (amino acid sequences of heavy and light chains are set forth in SEQ ID NOs: 7 and 8, respectively), anti-TRABD2A-2 (amino acid sequences of heavy and light chains are set forth in SEQ ID NOs: 13 and 14, respectively) and negative control (amino acid sequences of heavy and light chains are set forth in SEQ ID NOs: 19 and 20, respectively) synthesized in Example 5-1 were used. […] After concentration of the antibodies, the protein concentrations were measure by A280, and the concentrations of anti-TRABD2A-1, anti-TRABD2A-2 and negative control were 0.92 mg/mL, 1.6 mg/mL and 2.98 mg/mL, respectively. The proteins were snap frozen in liquid nitrogen and stored at −80° C. for later use.

[9] = tested on: TRABD2A and TRABD2B proteins; assay: Killing of target cells by CD8+ T cells under intervention with bispecific anti-TRABD2A/2B antibody; type: cell-based, human; conditions: FIG. 7C
Source text: The effect of the bispecific antibody blocking both TRABD2A and TRABD2B proteins on target cell killing ability of CD8^+ T cells were examined.

TRABD2B protein = target: T6, TRABD2B protein (Homo sapiens, UniProt A6NFA1); assay: Binding of anti-TRABD2A/2B bispecific antibody to antigen TRABD2B protein; conditions: detection with antigen; FIG. 6C
T6 sequence (A6NFA1 20-486): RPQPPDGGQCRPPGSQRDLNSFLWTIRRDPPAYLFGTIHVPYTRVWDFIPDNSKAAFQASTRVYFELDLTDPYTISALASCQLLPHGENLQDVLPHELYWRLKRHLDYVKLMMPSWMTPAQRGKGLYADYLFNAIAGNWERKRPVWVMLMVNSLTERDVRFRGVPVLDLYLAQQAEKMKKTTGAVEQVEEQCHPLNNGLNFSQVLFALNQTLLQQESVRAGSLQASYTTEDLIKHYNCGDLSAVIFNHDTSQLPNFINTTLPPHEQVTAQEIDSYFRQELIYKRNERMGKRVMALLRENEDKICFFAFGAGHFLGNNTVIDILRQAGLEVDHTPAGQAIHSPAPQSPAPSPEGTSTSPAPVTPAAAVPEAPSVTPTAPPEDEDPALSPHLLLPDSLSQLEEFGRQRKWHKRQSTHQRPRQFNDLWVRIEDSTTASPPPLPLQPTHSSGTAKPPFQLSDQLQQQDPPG
Procedure: (§1) The bispecific antibody (amino acid sequences of heavy and light chains are set forth in SEQ IN NOs: 29 and 30, respectively) and negative control (amino acid sequences of heavy and light chains are set forth in SEQ IN NOs: 33 and 24, respectively) antibody synthesized in Example 5-3 were used. […] After the antibodies were concentrated, the protein concentration of anti-TRABD2A/2B was 1.23 mg/mL and that of the negative control was 1.02 mg/mL, as measured by A280. The proteins were snap frozen in liquid nitrogen and stored at −80° C. for later use.

TRABD2A protein [10] = target: T1, TRABD2A protein; assay: Binding of anti-TRABD2A/2B bispecific antibody to antigen TRABD2A protein; conditions: detection with antigen; FIG. 6C
Procedure: as §1

Molecule: [Mg+2] [Mg^2+]
- activity of the TRABD2A protein (TRABD2A protein [1]): independent

Molecule: [Mn+2] [Mn^2+]
- tumor killing ability of CD8^+ T cells [2]: not enhanced
- TRABD protease activity (TRABD protease): increase

Molecule: [Ni+2] [Ni^2+]
- tumor killing ability of CD8^+ T cells [2]: enhanced
- tumor killing ability of CD8^+ T cells [3]: enhanced
- toxic effect on CD8^+ T cells and target cells [4]: little toxic effect
- activity of the TRABD2A protein (TRABD2A protein [1]): inhibited
- TRABD protease activity (TRABD protease): opposite effect
- toxic effect on cells (target cells): little toxic effect

Molecule: negative control antibody of Example 6-1
- EC50 [5]: 14.1 µg/mL

B1: anti-TRABD2A-1 (antibody)
heavy: DASTLQRGVPSRFGGSGQMTQSPSSASTLQRGVPSRFGGSGSQSINRASTLQRGVPSRFGGSGGKAPKLVIYAASSLQSGVPSRFSGSGSGTDFTLTISSLQ
light: ASTLQRGVISWVRASTLQRGVPSRFGGSGPIFGTANYAQKFQGRVTITADESTSTAYMELSSLRSEDTAVYYASTLQRGVPSRFGGSGYYWGQGTPVTVSS
- effect on target cell killing ability of CD8^+ T cells [6]: enhanced effect
- EC50 [7]: 0.306 µg/mL
- binding to antigen (TRABD2A protein [8]): high binding efficiency

B2: anti-TRABD2A-2 (antibody)
heavy: APKLLIYAASSLRSGVPSRFSGSTCRASQSINRYLNWYQAPKLLIYAASSLRSGVPSRFSGSYAASSLQSGVPSRFSGSGSGTDFTLTISSLQPEDFATYYCQQGGTKV
light: YYWGQGTPVTVSKKPGSSVKVSAPKLLIYAASSLRSGVPSRFSGSGTFSSYAISWVRQAPGQGLEWMGGIIPIFGTANYAQKFQGRVTITADESTSTAYMELSSLRSEDTA
- effect on target cell killing ability of CD8^+ T cells [6]: enhanced effect
- EC50 [7]: 0.128 µg/mL
- binding to antigen (TRABD2A protein [8]): high binding efficiency

B3: anti-TRABD2A/2B bispecific antibody: bispecific antibody recognizing both TRABD2A and TRABD2B; heavy and light chains SEQ ID NOs: 29 and 30 (antibody)
heavy: YQSQSINRYLNWYQQKPGKSNYLNWAPKLVIYAASSLQYCQQYNFYPLTFGYLNWYQSSGTYLNWYQQRPGKAPSSGTYQRPGKAPGGTKVSNYLNWYQSN
light: YAQKFQGRVTITVKVSCKASGGTFSSYAISWVRQAPGQGLEWMGQVQLVQSGAEVKKPGSSGIIPIFGTANADESTSTAYMELSSLRSEDTAVYYCARTRGYS
- effect on the killing of target cells by CD8^+ T cells [9]: enhancing effect
- binding to TRABD2B (TRABD2B protein): capable of binding
- binding to TRABD2A (TRABD2A protein [10]): capable of binding
